The values that follow come from patent US20110189178A1.

In test [1] the target is recombinant human FcγRIIb (R&D Systems) (human) (UniProt P31994). Description: Biacore SPR.
Test [2] shares this target. Description: Biacore SPR, global Langmuir fit (mean ± SD, n = 4). (In general: Surface plasmon resonance follows binding to a sensor surface in real time, without labels.)
Test [3] deals with human FcγRIIIa, V158 isoform (human) (UniProt P08637). Description: Biacore SPR [cont.].
Test [4] has as its target recombinant human FcγRIIb (R&D Systems) (human) (UniProt P31994). Description: Biacore SPR [cont.].
The target of test [5] is FcγRI (human) (UniProt P12314). In words: Biacore SPR [cont.].
Sequence of FcγRI (human) (P12314 16-288 limits assumed): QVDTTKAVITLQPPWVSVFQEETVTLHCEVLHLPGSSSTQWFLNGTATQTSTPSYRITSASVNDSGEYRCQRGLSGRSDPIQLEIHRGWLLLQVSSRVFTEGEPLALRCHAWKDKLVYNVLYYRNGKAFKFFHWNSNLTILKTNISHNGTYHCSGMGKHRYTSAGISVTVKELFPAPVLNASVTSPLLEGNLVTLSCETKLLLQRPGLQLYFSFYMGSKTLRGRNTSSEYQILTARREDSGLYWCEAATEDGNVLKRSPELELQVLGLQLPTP
For test [6], the target named is FcγRIIaH (human) (UniProt P12318). In words: Biacore SPR [cont.].
Sequence of FcγRIIaH (human) (P12318 34-217): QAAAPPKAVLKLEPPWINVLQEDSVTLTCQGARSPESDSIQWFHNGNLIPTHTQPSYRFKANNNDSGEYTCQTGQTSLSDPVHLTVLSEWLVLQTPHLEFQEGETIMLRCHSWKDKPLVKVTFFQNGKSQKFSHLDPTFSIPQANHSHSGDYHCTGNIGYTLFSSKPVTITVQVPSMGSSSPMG
The target of test [7] is FcγRIIb on the cell surface (UniProt P31994). In words: binding to FcγRIIb on the cell surface.
Sequence of FcγRIIb on the cell surface (P31994 43-310 limits assumed): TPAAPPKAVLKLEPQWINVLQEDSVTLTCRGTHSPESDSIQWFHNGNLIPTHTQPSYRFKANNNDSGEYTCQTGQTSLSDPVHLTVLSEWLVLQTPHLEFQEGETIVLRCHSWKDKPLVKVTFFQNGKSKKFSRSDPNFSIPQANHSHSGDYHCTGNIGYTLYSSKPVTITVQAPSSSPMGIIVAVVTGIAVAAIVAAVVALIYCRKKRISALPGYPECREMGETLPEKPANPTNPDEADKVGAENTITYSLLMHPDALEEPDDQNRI
Test [8] addresses human FcγRIIIa, V158 isoform (human) (UniProt P08637). Description: Biacore SPR.
Test [9] deals with FcγRIIaR (human) (UniProt P12318). Description: Biacore SPR.
In test [10] the target is FcγRIIIaF (human) (UniProt P08637). In words: Biacore SPR.
Sequence of FcγRIIIaF (human) (P08637 17-208 limits assumed): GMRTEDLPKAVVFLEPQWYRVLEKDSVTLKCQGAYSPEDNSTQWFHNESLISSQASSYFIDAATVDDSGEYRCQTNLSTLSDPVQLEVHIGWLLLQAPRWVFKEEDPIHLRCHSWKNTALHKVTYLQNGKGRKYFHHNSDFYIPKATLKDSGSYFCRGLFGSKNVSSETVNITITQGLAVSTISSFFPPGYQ
The target in test [11] is FcγRI (human) (UniProt P12314). In words: Biacore SPR.
Test [12] concerns the target FcγRIIaH (human) (UniProt P12318). In words: Biacore SPR.
The target of test [13] is FcγRIIaR (human) (UniProt P12318). Description: Biacore SPR [cont.].
Test [14] concerns the target FcγRIIIaF (human) (UniProt P08637). In words: Biacore SPR [cont.].

Sequence of recombinant human FcγRIIb (R&D Systems) (human) (P31994 46-217 limits assumed): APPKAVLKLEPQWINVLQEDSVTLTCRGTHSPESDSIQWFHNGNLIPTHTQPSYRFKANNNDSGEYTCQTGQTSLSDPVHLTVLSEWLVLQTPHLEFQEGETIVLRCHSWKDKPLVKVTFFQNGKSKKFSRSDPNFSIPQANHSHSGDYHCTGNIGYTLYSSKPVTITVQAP
Sequence of human FcγRIIIa, V158 isoform (human) (P08637 17-208 F176V limits assumed): as the sequence (P08637 17-208 limits assumed) above, with F160V counted along it

Usually Kd stands for a measure of binding affinity in units of concentration. As to G236D (antibody), in [1], the Fold (KD native IgG1/KD variant) was determined as 1.8 fold. Moreover, in test [2], the Kd was 1000 nM.

What is called EC50 is the concentration giving half of the maximal effect. A lower EC50 goes with a more potent agent. G236D/S267E (antibody): the Kd in [3] was 579 nM; in test [4] it was 26.6 nM; in the test with FcγRI (human) [5], 3.71 nM; with FcγRIIaH (human) [6], 2730 nM; in [2], 25 nM. In test [7], this substance came in with a half-maximal effective concentration (EC50) of 6 nM.

L328F (antibody): the Kd in test [2] amounted to 640 nM.

The substance Native IgG1 (antibody) had an EC50 in [7] of 440 nM. Further, the Kd in [8] is 191 nM; with FcγRIIaR (human) [9], 859 nM; with FcγRIIIaF (human) [10], 1350 nM; in test [1], 1470 nM; with FcγRI (human) [11], 0.329 nM; with FcγRIIaH (human) [12], 646 nM. In addition, in test [2], the Kd turned out to be 1800 nM.

On to S239D (antibody), for which the Kd in test [2] was 380 nM.

As to S239D/I332E (antibody), the Kd with FcγRIIaR (human) [13] was determined as 68.6 nM; with FcγRIIIaF (human) [14], 28.2 nM; in [4], 101 nM; with FcγRI (human) [5], 0.0374 nM; in the test with FcγRIIaH (human) [6], 163 nM.

Turning to S239D/S267E (antibody), the Fold is 3.74 in [3]; 120 with FcγRIIaR (human) [13]; 2.62 in the test with FcγRIIIaF (human) [14]; 111 in test [4]; 23.2 with FcγRI (human) [5]; 1.27 with FcγRIIaH (human) [6]. Besides, the Kd in test [3] came to 51.2 nM; in the test with FcγRIIaR (human) [13], 7.16 nM; with FcγRIIIaF (human) [14] it was 516 nM; in test [4] it was 13.3 nM; with FcγRI (human) [5], 0.0142 nM; with FcγRIIaH (human) [6], 510 nM. Moreover, the Kd in test [2] was 12 nM. Moreover, in [7], the EC50 was determined as 2 nM. In addition, the Fold (against native IgG1) in test [7] is 220 fold. In [1], the Fold (KD native IgG1/KD variant) was determined as 150 fold.

In test [7], S267E (antibody) yielded an EC50 of 25 nM and a Fold (against native IgG1) of 18 fold. Besides, the Fold (KD native IgG1/KD variant) in test [1] was determined as 30 fold.

Turning to S267E/L328F (antibody), the Fold came to 0.038 in [3]; 275 with FcγRIIaR (human) [13]; 242 in test [4]; 1.5 with FcγRI (human) [5]; 0.7 in the test with FcγRIIaH (human) [6]. The Kd stood at 5040 nM in test [3]; 3.12 nM in the test with FcγRIIaR (human) [13]; 6.06 nM in test [4]; 0.22 nM with FcγRI (human) [5]; 923 nM with FcγRIIaH (human) [6]; 4.2 nM in [2]. Moreover, in test [7], the EC50 worked out at 1.4 nM. In [7], the Fold (against native IgG1) stood at 320 fold. In addition, the Fold (KD native IgG1/KD variant) in test [1] worked out at 430 fold.
